Experimental data: patent publication US20250326828A1 (STAIDSON BEIJING BIOPHARMACEUTICALS, published 2025)
Where two headings read alike, the source gives them in different places.

Legend:
human GDF15-his [1] = biological target: T1, human GDF15-his (human); assay: ELISA as in Example 2: plate coated with the antibody, graded human GDF15-his, anti-his-HRP, OD450; the sheet's x axis reads 'Log GDF15 Antibody (nM)'
T1 construct: Recombinant His-tagged fusion protein expressed in 293F cells
T1 chain: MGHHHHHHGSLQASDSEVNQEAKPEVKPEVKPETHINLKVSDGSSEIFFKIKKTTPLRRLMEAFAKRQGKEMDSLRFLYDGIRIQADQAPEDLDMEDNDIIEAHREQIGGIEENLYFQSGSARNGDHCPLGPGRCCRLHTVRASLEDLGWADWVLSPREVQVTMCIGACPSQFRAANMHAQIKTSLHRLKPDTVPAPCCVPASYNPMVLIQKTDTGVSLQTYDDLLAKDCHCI
Description: (§1) ELISA binding assay: The purified monoclonal antibody was subjected to a binding assay with human GDF15-his protein. The binding assay was designed to characterize the binding activity of the anti-GDF15 antibody. Briefly, a 96-well plate was coated with anti-GDF15 antibody (200 ng/well) and incubated for 1 hour at 37° C. The plates were washed with PBST and then blocked for 1 hour at room temperature using 1% BSA. Then 100 µl/well of gradient-diluted human GDF15-his solution (dose range 0-50 μg/ml) was added into plates. After incubation, 100 μl of anti-his tag secondary antibody (anti-his-HRP (1:2000), Bersee, cat #BHR790) was added to each well. Finally, the TMB solution (100 μl/well) was added. 2M H₂SO₄ was used to stop the reaction. The OD450 was measured, and the binding curves were generated by PRISM software to analyze the affinity of candidate antibodies to human GDF15 antigen, and EC₅₀ value were calculated.

human GDF15-hFc [2] = biological target: T2, human GDF15-hFc (human); assay: competition ELISA as in Example 2; GFRAL-his coated, antibody titrated against human GDF15-hFc
T2 construct: Recombinant hFc-tagged fusion protein expressed in 293F cells
T2 chain: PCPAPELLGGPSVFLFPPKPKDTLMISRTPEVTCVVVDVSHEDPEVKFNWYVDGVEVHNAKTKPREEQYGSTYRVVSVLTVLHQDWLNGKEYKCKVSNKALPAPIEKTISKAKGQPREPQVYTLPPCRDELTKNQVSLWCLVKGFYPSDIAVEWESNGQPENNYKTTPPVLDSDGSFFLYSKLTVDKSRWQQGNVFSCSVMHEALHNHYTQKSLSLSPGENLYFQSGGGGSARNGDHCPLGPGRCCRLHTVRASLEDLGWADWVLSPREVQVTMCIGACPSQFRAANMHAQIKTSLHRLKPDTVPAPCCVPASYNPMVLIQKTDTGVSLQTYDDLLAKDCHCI
Description: The ELISA assay was performed to measure the inhibitory activity of anti-GDF15 antibodies in concentration gradients to block GDF15 binding to GFRAL receptor. IC₅₀ values were used as a measure for neutralizing activity of candidate molecules. Briefly, 96-well plates were coated with 100 ng/well of GFRAL-his protein (SEQ ID NO: 74), and incubated for 1 h at 37° C. The plates were washed with PBST and then blocked for 1 hour at 37° C. with 1% BSA. Gradient-diluted antibodies (dose range 0˜10 μg/ml) was added into each well, immediately followed by equal volume of human GDF15-hFc protein ([…]). After incubation and washing, 100 μl of anti-human IgG secondary antibody (goat anti-human IgG-HRP, Sigma, A8667) was added to each well. Finally, TMB solution (100 μl/well) was added. 2M H₂SO₄ was used to stop the reaction. The OD450 was measured and the binding curve was generated by PRISM to calculate the IC₅₀ value.

human GDF15-his [3] = biological target: T1, human GDF15-his; assay: cell-based or functional assay
human GDF15-his [4] = biological target: T1, human GDF15-his; assay: ELISA as in Example 2: plate coated with the antibody, graded human GDF15-his, anti-his-HRP, OD450; the sheet's x axis reads 'Log GDF15 Antibody (nM)'
Description: as §1

mouse GDF15-hFc = biological target: T3, mouse GDF15-hFc (mouse); assay: SPR, Biacore 8K; antibody on CM5 chip
T3 chain: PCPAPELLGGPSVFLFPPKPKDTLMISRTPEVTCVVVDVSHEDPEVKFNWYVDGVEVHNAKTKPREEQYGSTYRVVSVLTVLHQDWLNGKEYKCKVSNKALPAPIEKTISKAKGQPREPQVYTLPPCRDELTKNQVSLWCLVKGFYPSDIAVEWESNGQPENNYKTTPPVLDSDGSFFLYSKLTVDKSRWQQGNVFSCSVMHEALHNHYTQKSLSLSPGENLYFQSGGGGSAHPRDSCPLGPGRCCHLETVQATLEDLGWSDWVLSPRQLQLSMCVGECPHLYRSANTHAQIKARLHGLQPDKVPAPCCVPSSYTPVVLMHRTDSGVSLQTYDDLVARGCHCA
Description: (§2) The binding affinity of anti-GDF15 antibodies for human GDF15, rhesus monkey GDF15, mouse GDF15 were characterized using Biacore 8K (GE). The anti-GDF15 antibodies were stabilized on sensor chip CM5. The binding affinity of antibody for GDF15 proteins from different species at various concentrations was measured. Using the SPR technology, the association and dissociation rates were measured, and binding affinity was determined.

human GDF15-hFc [5] = biological target: T2, human GDF15-hFc; assay: SPR, Biacore 8K; antibody on CM5 chip
Description: as §2

rhesus monkey GDF15-hFc = biological target: T4, rhesus monkey GDF15-hFc (rhesus monkey); assay: SPR, Biacore 8K; antibody on CM5 chip
T4 chain: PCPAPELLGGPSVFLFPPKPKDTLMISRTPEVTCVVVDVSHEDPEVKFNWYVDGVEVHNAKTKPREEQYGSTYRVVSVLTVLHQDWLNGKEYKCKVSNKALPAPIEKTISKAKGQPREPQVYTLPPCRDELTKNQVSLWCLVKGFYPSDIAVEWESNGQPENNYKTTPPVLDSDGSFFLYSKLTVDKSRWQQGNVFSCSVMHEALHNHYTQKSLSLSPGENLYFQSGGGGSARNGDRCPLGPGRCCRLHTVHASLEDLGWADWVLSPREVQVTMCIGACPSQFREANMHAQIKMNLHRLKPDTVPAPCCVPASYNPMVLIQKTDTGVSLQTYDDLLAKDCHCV
Description: as §2

human GDF15-his [6] = biological target: T1, human GDF15-his; assay: cell-based or functional assay
human GDF15-his [7] = biological target: T1, human GDF15-his; assay: ELISA as in Example 2: plate coated with the antibody, graded human GDF15-his, anti-his-HRP, OD450; the sheet's x axis reads 'Log GDF15 antibody (nM)'
Description: as §1

B1: hum_R37-7 (antibody, V domains shown)
VH: EVQLVESGGGLVKPGGSLRLSCAASGFSLSNYYMSWVRQAPGKGLEWIGMISFSGTTYATWAKGRFTISKDSSKNTVYLQINSLKTEDTAVYFCARVVYAGWTYPLGIWGQGTLVTVSS
VL: DIQMTQSPSSLSASVGDRVTITCQASQSISSVLSWYQQKPGKPPKALIYEASILASGVPSRFSGSGSGTDFTLTISSLQPEDFATYYCQANYDVYNYGNPFGGGTKVEIK
notes: Tested in human IgG1 format
- EC50 (read off the curve) (human GDF15-his [1]): ~80 nM
- IC50 (human GDF15-hFc [2]): 2.31 nM
- IC50 (read off the curve), SRE-luciferase signal in 293T-GFRAL/RET-Luc cells with human GDF15-his (human GDF15-his [3]): ~0.1 nM

B2: hum_R37-2 (antibody, V domains shown)
VH: EVQLVESGGGLVKPGGSLRLSCAASGFSLSNYYMSWVRQAPGKGLEWIGMISFSGTTYATWAKGRFTISKDSSTVYLQINSLKTEDTAVYFCARVVYAGWTYPLGIWGQGTLVTVSS
VL: DIQLTQSPSSLSASVGDRVTITCQASQSISSVLSWYQQKPGKPPKALIYEASILASGVPSRFSGSGSGTDFTLTISSLQPEDFATYYCQANYDVYNYGNPFGGGTKVEIK
notes: Tested in human IgG1 format
- IC50 (human GDF15-hFc [2]): 1.72 nM
- EC50 (read off the curve) (human GDF15-his [4]): ~60 nM
- Kd (mouse GDF15-hFc): 118 nM
- koff (mouse GDF15-hFc): 0.00175 s⁻¹
- kon (mouse GDF15-hFc): 14800 M⁻¹ s⁻¹
- Kd (human GDF15-hFc [5]): 1.07 nM
- koff (human GDF15-hFc [5]): 0.000137 s⁻¹
- kon (human GDF15-hFc [5]): 129000 M⁻¹ s⁻¹
- Kd (rhesus monkey GDF15-hFc): 1.28 nM
- koff (rhesus monkey GDF15-hFc): 0.00263 s⁻¹
- kon (rhesus monkey GDF15-hFc): 2.06e+06 M⁻¹ s⁻¹
- IC50 (read off the curve), SRE-luciferase signal in 293T-GFRAL/RET-Luc cells with human GDF15-his (human GDF15-his [3]): ~0.1 nM

B3: hum_R37-8 (antibody, V domains shown)
VH: EVQLVESGGGLVKPGGSLRLSCAASGFSLSNYYMSWVRQAPGKGLEWIGMISFSGTTYATWAKGRFTISKDSSTVYLQINSLKTEDTAVYFCARVVYAGWTYPLGIWGQGTLVTVSS
VL: DIQMTQSPSSLSASVGDRVTITCQASQSISSVLSWYQQKPGKPPKALIYEASILASGVPSRFSGSGSGTDFTLTISSLQPEDFATYYCQANYDVYNYGNPFGGGTKVEIK
notes: Tested in human IgG1 format
- EC50 (read off the curve) (human GDF15-his [1]): ~80 nM
- IC50 (human GDF15-hFc [2]): 1.59 nM
- Kd (mouse GDF15-hFc): 101 nM
- koff (mouse GDF15-hFc): 0.0017 s⁻¹
- kon (mouse GDF15-hFc): 16800 M⁻¹ s⁻¹
- Kd (human GDF15-hFc [5]): 0.607 nM
- koff (human GDF15-hFc [5]): 8.46e-05 s⁻¹
- kon (human GDF15-hFc [5]): 139000 M⁻¹ s⁻¹
- Kd (rhesus monkey GDF15-hFc): 1.09 nM
- koff (rhesus monkey GDF15-hFc): 0.002 s⁻¹
- kon (rhesus monkey GDF15-hFc): 1.84e+06 M⁻¹ s⁻¹
- IC50 (read off the curve), SRE-luciferase signal in 293T-GFRAL/RET-Luc cells with human GDF15-his (human GDF15-his [3]): ~0.1 nM

B4: hum_R37-11 (antibody, V domains shown)
VH: EVQLVESGGGLVKPGGSLRLSCAASGFSLSNYYMSWVRQAPGKGLEWVGMISFSGTTYATWAKGRFTISRDDSKNTVYLQINSLKTEDTAVYFCARVVYAGWTYPLGIWGQGTLVTVSS
VL: DIQMTQSPSSLSASVGDRVTITCQASQSISSVLSWYQQKPGKPPKALIYEASILASGVPSRFSGSGSGTDFTLTISSLQPEDFATYYCQANYDVYNYGNPFGGGTKVEIK
notes: Tested in human IgG1 format
- EC50 (read off the curve) (human GDF15-his [1]): ~80 nM
- IC50 (human GDF15-hFc [2]): 1.9 nM
- IC50 (read off the curve), SRE-luciferase signal in 293T-GFRAL/RET-Luc cells with human GDF15-his (human GDF15-his [6]): ~0.1 nM

B5: hum_R37-15 (antibody, V domains shown)
VH: EVQLVESGGGLVKPGGSLRLSCAASGFSLSNYYMSWVRQAPGKGLEWIGMISFSGTTYATWAKGRFTISKDDSKNTVYLQINSLKTEDTAVYFCARVVYAGWTYPLGIWGQGTLVTVSS
VL: DIQMTQSPSSLSASVGDRVTITCQASQSISSVLSWYQQKPGKPPKLLIYEASILASGVPSRFSGSGSGTDFTLTISSLQPEDFATYYCQANYDVYNYGNPFGGGTKVEIK
notes: Tested in human IgG1 format
- IC50 (human GDF15-hFc [2]): 1.59 nM
- EC50 (read off the curve) (human GDF15-his [7]): ~200 nM
- IC50 (read off the curve), SRE-luciferase signal in 293T-GFRAL/RET-Luc cells with human GDF15-his (human GDF15-his [6]): ~0.2 nM

B6: hum_R37-9 (antibody, V domains shown)
VH: EVQLVESGGGLVKPGGSLRLSCAASGFSLSNYYMSWVRQAPGKGLEWIGMISFSGTTYATWAKGRFTISKDDSKNTVYLQINSLKTEDTAVYFCARVVYAGWTYPLGIWGQGTLVTVSS
VL: DIQMTQSPSSLSASVGDRVTITCQASQSISSVLSWYQQKPGKPPKALIYEASILASGVPSRFSGSGSGTDFTLTISSLQPEDFATYYCQANYDVYNYGNPFGGGTKVEIK
notes: Tested in human IgG1 format
- EC50 (read off the curve) (human GDF15-his [1]): ~80 nM
- IC50 (human GDF15-hFc [2]): 1.82 nM
- IC50 (read off the curve), SRE-luciferase signal in 293T-GFRAL/RET-Luc cells with human GDF15-his (human GDF15-his [6]): ~0.2 nM

B7: hum_R37-13 (antibody, V domains shown)
VH: EVQLVESGGGLVKPGGSLRLSCAASGFSLSNYYMSWVRQAPGKGLEWIGMISFSGTTYATWAKGRFTISKDSSKNTVYLQINSLKTEDTAVYFCARVVYAGWTYPLGIWGQGTLVTVSS
VL: DIQMTQSPSSLSASVGDRVTITCQASQSISSVLSWYQQKPGKPPKLLIYEASILASGVPSRFSGSGSGTDFTLTISSLQPEDFATYYCQANYDVYNYGNPFGGGTKVEIK
notes: Tested in human IgG1 format
- IC50 (human GDF15-hFc [2]): 2.06 nM
- EC50 (read off the curve) (human GDF15-his [7]): ~200 nM
- IC50 (read off the curve), SRE-luciferase signal in 293T-GFRAL/RET-Luc cells with human GDF15-his (human GDF15-his [6]): ~0.1 nM

B8: hum_R37-18 (antibody, V domains shown)
VH: EVQLVESGGGLVKPGGSLRLSCAASGFSLSNYYMSWVRQAPGKGLEWVGMISFSGTTYATWAKGRFTISRDDSKNTLYLQMNSLKTEDTAVYFCARVVYAGWTYPLGIWGQGTLVTVSS
VL: DIQMTQSPSSLSASVGDRVTITCQASQSISSVLSWYQQKPGKPPKLLIYEASILASGVPSRFSGSGSGTDFTLTISSLQPEDFATYYCQANYDVYNYGNPFGGGTKVEIK
notes: Tested in human IgG1 format
- IC50 (human GDF15-hFc [2]): 0.88 nM
- EC50 (read off the curve) (human GDF15-his [7]): ~200 nM
- IC50 (read off the curve), SRE-luciferase signal in 293T-GFRAL/RET-Luc cells with human GDF15-his (human GDF15-his [6]): ~0.2 nM
